Source: patent US12605458B2, “Antibody-drug conjugate having acidic self-stabilization junction” (priority 2017, dated 2026)

Key:
[1] = SEC-HPLC detection of degree of aggregation; format: physicochemical; details: 280 nm
Method: ADC samples obtained via conjugation were centrifuged at 14,000 rpm for five minutes and the supernatant was taken for analysis. Instrument: Waters e2695 (2489UV/Vis) Chromatography column: TSKgel G3000SWXL (7.8×300 mm, 5 μm) Mobile phase: A: 50 mM PB, 300 mM NaCl, 200 mM Arg, 5% IPA, pH 6.5 Mobile Phase A was eluted isocratically for 30 minutes; flow rate: 0.714 ml/min, column temperature: 25° C., detection wavelength: 280 nm.

[2] = Plasma stability in vitro (DAR by RP-HPLC after incubation in human plasma); format: in vitro ADME; details: 37° C.
Method: A fixed amount of ADC sample was added to human plasma for which human IgG had already been removed, with each ADC tube prepared in triplicate; next, incubation in a 37° C. water bath was performed for 0 hours and 72 hours, after which the ADC sample was removed and 100 μl of Protein A (MabSelect SuRe™ LX Lot: #10221479GE, washed with PBS) was added to each tube; adsorption was then allowed to proceed under agitation on a vertical mixer for two hours, followed by washing and elution to obtain incubated ADC; the plasma stability of each incubated ADC sample was then determined via RP-HPLC.

[3] = Hydrophobic interaction chromatography (HIC) assay; format: physicochemical; details: eight drug units per antibody, FIG. 4
Method: ADC analysis was performed using hydrophobic interaction chromatography (HIC). Elution was performed using 0 to 100% Mobile Phase B (MPB), where Mobile Phase A (MPA) consisted of 1.5 M ammonium sulfate and 0.025 M sodium phosphate, and MPB consisted of 0.025 M sodium phosphate and 25% isopropanol. The sample loading volume was approximately 20 μg, and gradient elution was completed in 15 minutes. 280 nm UV was used for detection, and the stronger the […] sample, the later the peak produced.
Following complete reduction of IgG1 antibody to 8 thiols per antibody according to General Procedure A, corresponding antibody-drug conjugates were prepared via non-specific coupling. ADCs with acidic stabilization junctions and conventional junctions ADC (i.e., MC-VC-PAB-MMAE) with eight drug units per antibody were further separated and purified via hydrophobic interaction chromatography and hydrophobic interaction chromatography (HIC) was used to perform an ADC analysis according to General Procedure C. ADCs with greater hydrophobicity, or larger drug/molecule ratios eluted at later retention times.

MC-VC-PAB-MMAE
Aggregation Rate [1]: 32.46%
Monomer Ratio [1]: 67.51%
0 h DAR ([2]; human plasma with human IgG removed, 0 hours, RP-HPLC): 7.2
72 h DAR ([2]; human plasma with human IgG removed, 72 hours, RP-HPLC): 2.3
drug loss / change in DAR during plasma incubation (in words) ([2]; human plasma, 72 hours): very significant reduction in DAR
HIC retention time (hydrophobicity, in words) [3]: longest retention time
